Measured values taken from US20020147306A1, “Peptides that modulate the interaction of B class ephrins and PDZ domains” (priority 1998, published 2002).

Columns and labels:
[1] = target: T1, GRIP PDZ6 (Mus musculus, UniProt Q925T6); test: Fluorescence polarization binding of fluorescent peptide to GST fusion of GRIP PDZ6
T1 construct: separate GST fusions of GRIP PDZ6 and GRIP PDZ7; made in house
T1 sequence (Q925T6 672-754 limits assumed): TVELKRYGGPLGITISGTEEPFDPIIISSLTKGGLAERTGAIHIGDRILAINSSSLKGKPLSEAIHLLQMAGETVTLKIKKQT
Protocol: (§1) All fluorescence polarization measurements were conducted at 22° C.

[2] = target: T2, GRIP PDZ7 (Mus musculus, UniProt Q925T6); test: Fluorescence polarization binding of fluorescent peptide to GST fusion of GRIP PDZ7
T2 construct: separate GST fusions of GRIP PDZ6 and GRIP PDZ7; made in house
T2 sequence (Q925T6 1003-1085 limits assumed): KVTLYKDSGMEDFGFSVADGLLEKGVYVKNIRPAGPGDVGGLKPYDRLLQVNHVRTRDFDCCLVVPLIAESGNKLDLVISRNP
Protocol: as §1

[3] = target: T3, GST-FAP-1 PDZ5 binding to ephrin B1 (Homo sapiens, UniProt Q12923); test: Peptide competition of GST-FAP-1 PDZ5 binding to ephrin B1 (GST mixing, immunoblot); settings: peptide 100 μM, lysates of ephrin B1-transfected Cos-1 cells
T3 construct: made in house; ephrin B1: transiently transfected Cos-1 cells (lysate)
T3 sequence (Q12923 1788-1868 limits assumed): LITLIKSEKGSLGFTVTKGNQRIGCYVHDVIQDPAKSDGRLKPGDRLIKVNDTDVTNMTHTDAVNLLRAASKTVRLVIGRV
Protocol: FIGS. 4A and 4B. FAP-1 PDZ5 and syntenin binding to ephrin B1 can be blocked by addition of peptides corresponding to the C-terminal sequence of B ephrins. Peptides of the indicated sequence were included at a concentration of 100 μM in incubations of GST fusion proteins with lysates of Cos-1 cells transfected with ephrin B1. Associated proteins were separated on a 10% polyacrylamide/SDS gel and analyzed by immunoblotting with antibodies against ephrin B1. FIG. 4A, Competition of FAP-1 PDZ5 binding to ephrin B1 using the indicated peptides. A peptide of sequence DHQpYpYND was added at a concentration of 100 μM as a negative control. Immunoprecipitation of ephrin B1 was included as a positive control. FIG. 4B, Peptide competition of the binding of full-length syntenin to ephrin B1.
Cos-1 cells were maintained in DMEM supplemented with 10% fetal bovine serum (FBS). Transient transfections were performed using Lipofectin reagent and Opti-MEM medium (Life Technologies Inc.) as outlined by the manufacturer. To reduce phosphorylation of ephrin B1 by binding to endogenously expressed EphB receptors or by stimulation with serum growth factors, transfected cells were transferred from 10 cm to 15 cm plates 24 h after transfection and serum starved in DMEM 0.5% FBS 12 h prior to cell lysis. […]

Row | interaction with GST fusion of GRIP PDZ6 [1] | interaction with GST fusion of GRIP PDZ7 [2] | blocking of GST-FAP-1 PDZ5 binding to ephrin B1 [3] | Substance
1 | not detected | not detected | – | GNIYYKV [fluorescent B ephrin C-terminal peptide]
2 | – | – | did not decrease binding | DHQpYpYND
